In article PMC10397247:

Legend:
Experiment in all cases: two-hybrid library CCmax;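 also: natural log of median RNA to DNA barcode read ratio; higher means stronger binding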
4H1449-AA = biological target: T1, 4H1449-AA; settings: mean of both orientations
T1 chain: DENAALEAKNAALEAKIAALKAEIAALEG

4H1262-AA = biological target: T2, 4H1262-AA
T2 chain: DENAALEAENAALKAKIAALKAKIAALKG

4H3629-AA = biological target: T3, 4H3629-AA; settings: mean of both orientations
T3 chain: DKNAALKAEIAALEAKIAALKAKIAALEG

4H3974-AA = biological target: T4, 4H3974-AA; settings: mean of both orientations
T4 chain: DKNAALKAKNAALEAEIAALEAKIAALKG

4H63-AA = biological target: T5, 4H63-AA; settings: mean of both orientations
T5 chain: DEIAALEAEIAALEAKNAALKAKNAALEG

4H2580-AA = biological target: T6, 4H2580-AA; settings: mean of both orientations
T6 chain: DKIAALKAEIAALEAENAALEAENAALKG

4H3049-AA = biological target: T7, 4H3049-AA; settings: mean of both orientations
T7 chain: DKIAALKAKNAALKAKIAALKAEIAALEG

4H380-AA = biological target: T8, 4H380-AA; settings: mean of both orientations
T8 chain: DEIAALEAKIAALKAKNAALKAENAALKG

4H2621-AA = biological target: T9, 4H2621-AA; settings: mean of both orientations
T9 chain: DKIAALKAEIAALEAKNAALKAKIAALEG

4H324-AA = biological target: T10, 4H324-AA; settings: mean of both orientations
T10 chain: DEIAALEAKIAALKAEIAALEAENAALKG

4H1384-AA = biological target: T11, 4H1384-AA; settings: mean of both orientations
T11 chain: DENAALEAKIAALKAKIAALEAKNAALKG

4H432-AA = biological target: T12, 4H432-AA; settings: mean of both orientations
T12 chain: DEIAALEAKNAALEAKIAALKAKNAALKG

4H2760-AA = biological target: T13, 4H2760-AA; settings: mean of both orientations
T13 chain: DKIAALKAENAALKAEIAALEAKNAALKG

4H3449-AA = biological target: T14, 4H3449-AA; settings: mean of both orientations
T14 chain: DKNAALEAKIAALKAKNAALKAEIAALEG

4H446-AA = biological target: T15, 4H446-AA; settings: mean of both orientations
T15 chain: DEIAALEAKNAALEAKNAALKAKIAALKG

4H3777-AA = biological target: T16, 4H3777-AA; settings: mean of both orientations
T16 chain: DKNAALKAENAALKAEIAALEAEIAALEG

4H3619-AA = biological target: T17, 4H3619-AA; settings: mean of both orientations
T17 chain: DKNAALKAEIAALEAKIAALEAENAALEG

4H2604-AA = biological target: T18, 4H2604-AA; settings: mean of both orientations
T18 chain: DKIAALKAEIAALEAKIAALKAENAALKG

4H2903-AA = biological target: T19, 4H2903-AA; settings: mean of both orientations
T19 chain: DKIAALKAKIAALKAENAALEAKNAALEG

4H1349-AA = biological target: T20, 4H1349-AA; settings: mean of both orientations
T20 chain: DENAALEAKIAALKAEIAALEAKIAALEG

4H1593-AA = biological target: T21, 4H1593-AA; settings: mean of both orientations
T21 chain: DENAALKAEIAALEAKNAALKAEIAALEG

4H2947-AA = biological target: T22, 4H2947-AA; settings: mean of both orientations
T22 chain: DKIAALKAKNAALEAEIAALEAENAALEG

4H3915-AA = biological target: T23, 4H3915-AA; settings: mean of both orientations
T23 chain: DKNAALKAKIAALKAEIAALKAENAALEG

4H2774-AA = biological target: T24, 4H2774-AA; settings: mean of both orientations
T24 chain: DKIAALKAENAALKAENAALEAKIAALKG

4H235-AA = biological target: T25, 4H235-AA; settings: mean of both orientations
T25 chain: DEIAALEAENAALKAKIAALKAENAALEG

4H3094-AA = biological target: T26, 4H3094-AA; settings: mean of both orientations
T26 chain: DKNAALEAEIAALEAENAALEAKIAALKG

4H341-AA = biological target: T27, 4H341-AA; settings: mean of both orientations
T27 chain: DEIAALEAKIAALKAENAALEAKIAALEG

4H249-AA = biological target: T28, 4H249-AA; settings: mean of both orientations
T28 chain: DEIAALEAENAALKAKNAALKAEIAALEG

4H2961-AA = biological target: T29, 4H2961-AA; settings: mean of both orientations
T29 chain: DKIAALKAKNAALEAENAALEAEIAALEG

4H133-AA = biological target: T30, 4H133-AA; settings: mean of both orientations
T30 chain: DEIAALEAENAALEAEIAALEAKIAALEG

4H1878-AA = biological target: T31, 4H1878-AA; settings: mean of both orientations
T31 chain: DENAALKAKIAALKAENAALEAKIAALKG

P5-AA-1HGe-S = biological target: T32, P5-AA-1HGe-S; settings: mean of both orientations
T32 chain: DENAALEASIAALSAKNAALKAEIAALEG

O6-AA = biological target: T33, O6-AA
T33 chain: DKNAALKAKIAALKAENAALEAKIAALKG

P5-AA-1HGe-H = biological target: T34, P5-AA-1HGe-H; settings: mean of both orientations
T34 chain: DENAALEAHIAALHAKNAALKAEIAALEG

P5-AA-1HGe-D = biological target: T35, P5-AA-1HGe-D; settings: mean of both orientations
T35 chain: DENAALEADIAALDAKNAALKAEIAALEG

O7-AA = biological target: T36, O7-AA; settings: mean of both orientations
T36 chain: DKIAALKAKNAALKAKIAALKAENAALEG

P5-AA-1HGe-R = biological target: T37, P5-AA-1HGe-R; settings: mean of both orientations
T37 chain: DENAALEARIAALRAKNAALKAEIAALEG

P5-AA-1HGe-T = biological target: T38, P5-AA-1HGe-T; settings: mean of both orientations
T38 chain: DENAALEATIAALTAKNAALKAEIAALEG

P5-AA-1HGe-M = biological target: T39, P5-AA-1HGe-M; settings: mean of both orientations
T39 chain: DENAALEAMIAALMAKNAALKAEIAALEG

P5-AA-1HGe-Y = biological target: T40, P5-AA-1HGe-Y; settings: mean of both orientations
T40 chain: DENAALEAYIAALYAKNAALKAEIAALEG

P5-AA-1HGe-A = biological target: T41, P5-AA-1HGe-A; settings: mean of both orientations
T41 chain: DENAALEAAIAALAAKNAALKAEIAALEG

P5-AA-1HGe-Q = biological target: T42, P5-AA-1HGe-Q; settings: mean of both orientations
T42 chain: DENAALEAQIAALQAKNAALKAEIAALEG

P5-AA-1HGe-W = biological target: T43, P5-AA-1HGe-W; settings: mean of both orientations
T43 chain: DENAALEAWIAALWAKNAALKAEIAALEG

P9-AA = biological target: T44, P9-AA; settings: mean of both orientations
T44 chain: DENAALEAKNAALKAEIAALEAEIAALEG

O8-AA = biological target: T45, O8-AA; settings: mean of both orientations
T45 chain: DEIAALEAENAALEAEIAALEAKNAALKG

P10-AA = biological target: T46, P10-AA; settings: mean of both orientations
T46 chain: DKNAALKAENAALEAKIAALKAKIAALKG

Question: For DENAALEAENAALKAKIAALKAKIAALKG [4H1262-AA], which interaction score (4H1449-AA) is on record?
Answer: The interaction score was -0.611.

Question: And the interaction score (4H1262-AA)?
Answer: Its interaction score is 0.551.

Question: What about the interaction score (4H3629-AA) of the same binder?
Answer: Its interaction score is -0.649.

Question: And the interaction score (4H3974-AA)?
Answer: Its interaction score is 1.62.

Question: What about the interaction score (4H63-AA) of the same binder?
Answer: Its interaction score is -0.668.

Question: What about the interaction score (4H2580-AA) of the same binder?
Answer: Its interaction score is -1.41.

Question: And the interaction score (4H3049-AA)?
Answer: The interaction score was 1.23.

Question: And the interaction score (4H380-AA)?
Answer: The interaction score was -1.85.

Question: And the interaction score (4H2621-AA)?
Answer: Its interaction score is -1.25.

Question: And the interaction score (4H324-AA)?
Answer: Its interaction score is -1.15.

Question: What about the interaction score (4H1384-AA) of the same binder?
Answer: The interaction score was -0.839.

Question: And the interaction score (4H432-AA)?
Answer: Its interaction score is -1.48.

Question: What about the interaction score (4H2760-AA) of the same binder?
Answer: Its interaction score is 1.09.

Question: And the interaction score (4H3449-AA)?
Answer: The interaction score was -0.766.

Question: What about the interaction score (4H446-AA) of the same binder?
Answer: Its interaction score is -1.67.

Question: What about the interaction score (4H3777-AA) of the same binder?
Answer: The interaction score was 2.49.

Question: What about the interaction score (4H3619-AA) of the same binder?
Answer: Its interaction score is 1.07.

Question: What about the interaction score (4H2604-AA) of the same binder?
Answer: The interaction score was -0.779.

Question: And the interaction score (4H2903-AA)?
Answer: Its interaction score is -1.83.

Question: What about the interaction score (4H1349-AA) of the same binder?
Answer: The interaction score was 0.283.

Question: And the interaction score (4H1593-AA)?
Answer: Its interaction score is -1.34.

Question: What about the interaction score (4H2947-AA) of the same binder?
Answer: Its interaction score is 0.251.

Question: And the interaction score (4H3915-AA)?
Answer: Its interaction score is -0.487.

Question: And the interaction score (4H2774-AA)?
Answer: Its interaction score is 1.29.

Question: And the interaction score (4H235-AA)?
Answer: Its interaction score is -0.797.

Question: And the interaction score (4H3094-AA)?
Answer: The interaction score was -0.633.

Question: What about the interaction score (4H341-AA) of the same binder?
Answer: Its interaction score is -1.06.

Question: What about the interaction score (4H249-AA) of the same binder?
Answer: The interaction score was -0.555.

Question: What about the interaction score (4H2961-AA) of the same binder?
Answer: The interaction score was -0.013.

Question: And the interaction score (4H133-AA)?
Answer: The interaction score was 1.64.

Question: And the interaction score (4H1878-AA)?
Answer: The interaction score was -1.09.

Question: Which interaction score (P5-AA-1HGe-S) does the source give for DKNAALKAKIAALKAENAALEAKIAALKG [O6-AA] here?
Answer: Its interaction score is 1.69.

Question: What about the interaction score (O6-AA) of the same binder?
Answer: Its interaction score is -0.782.

Question: And the interaction score (P5-AA-1HGe-H)?
Answer: Its interaction score is 1.6.

Question: What about the interaction score (P5-AA-1HGe-D) of the same binder?
Answer: Its interaction score is 1.7.

Question: And the interaction score (O7-AA)?
Answer: Its interaction score is -0.751.

Question: And the interaction score (P5-AA-1HGe-R)?
Answer: Its interaction score is 1.98.

Question: And the interaction score (P5-AA-1HGe-T)?
Answer: Its interaction score is 2.12.

Question: And the interaction score (P5-AA-1HGe-M)?
Answer: The interaction score was 2.06.

Question: What about the interaction score (P5-AA-1HGe-Y) of the same binder?
Answer: Its interaction score is 1.74.

Question: What about the interaction score (P5-AA-1HGe-A) of the same binder?
Answer: The interaction score was 2.21.

Question: What about the interaction score (P5-AA-1HGe-Q) of the same binder?
Answer: The interaction score was 2.25.

Question: And the interaction score (P5-AA-1HGe-W)?
Answer: Its interaction score is 1.75.

Question: And the interaction score (P9-AA)?
Answer: Its interaction score is -0.00244.

Question: What about the interaction score (O8-AA) of the same binder?
Answer: Its interaction score is 1.57.

Question: What about the interaction score (P10-AA) of the same binder?
Answer: Its interaction score is -1.2.
